From paper PMC5070911 (Clinical Immunology (Orlando, Fla.), 2016)

Target: T1, recombinant form of the extracellular domain of HER2 (amino acids 23-652) (UniProt P04626 23-652)
T1 construct: HER2 (neu/ErbB2), extracellular domain, amino acids 23-652; Bought recombinant protein; also called rHER2; neu; source: bought: e-bioscience, UK
Assay: SPR; competitive binding: fixed rHER2 concentration incubated 1 h with 5-, 50- and 500-fold excess of Herceptin, flowed over immobilised EPO
Conditions: both partners purified

- binding result: binds
B1: Eosinophil Peroxidase (EPO) (enzyme)
chain 1: not shown
chain 2: VDCERTCAQLPPCFPIKIPPNDPRIKNQRDCIPFFRSAPSCPQNKNRVRNQINALTSFVDASMVYGSEVSLSLRLRNRTNYLGLLAINQRFQDNGRALLPFDNLHDDPCLLTNRSARIPCFLAGDTRSTETPKLAAMHTLFMREHNRLATELRRLNPRWNGDKLYNEARKIMGAMVQIITYRDFLPLVLGKARARRTLGHYRGYCSNVDPRVANVFTLAFRFGHTMLQPFMFRLDSQYRASAPNSHVPLSSAFFASWRIVYEGGIDPILRGLMATPAKLNRQDAMLVDELRDRLFRQVRRIGLDLAALNMQRSRDHGLPGYNAWRRFCGLSQPRNLAQLSRVLKNQDLARKFLNLYGTPDNIDIWIGAIAEPLLPGARVGPLLACLFENQFRRARDGDRFWWQKRGVFTKRQRKALSRISLSRIICDNTGITTVSRDIFRANIYPRGFVNCSRIPRLNLSAWRGT
notes: Eosinophil peroxidase, human, light chain of the mature enzyme; Eosinophil peroxidase, human, heavy chain of the mature enzyme; Native granule protein; source: purified from eosinophils of patients with marked eosinophilia (0.01 M HCl extraction, Sephadex G-50)
